Data: article PMC5226681

What was measured:
[1] = TZM-bl pseudovirus neutralization; conditions: glycan lost; control: wild-type CAP45
[2] = TZM-bl pseudovirus neutralization, plateau; conditions: control: CAP45 pseudovirus grown normally in 293T

Substance: HIV-1 envelope glycoprotein (Env, gp160) CAP45: N276D
- other: neutralisation sensitivity [1]: decreases

Substance: HIV-1 envelope glycoprotein (Env, gp160) CAP45: N230D
- other: neutralisation sensitivity [1]: no change

Substance: HIV-1 envelope glycoprotein (Env, gp160) CAP45: benzyl 2-acetamido-2-deoxy-α-D-galactopyranoside
- other: neutralisation sensitivity ([2]; glycan lost): no change

Substance: HIV-1 envelope glycoprotein (Env, gp160) CAP45: N276A
- other: neutralisation sensitivity [1]: abolishes

Substance: HIV-1 envelope glycoprotein (Env, gp160) CAP45: N611D
- other: neutralisation sensitivity [1]: decreases

Substance: HIV-1 envelope glycoprotein (Env, gp160) CAP45: 293S GnTI(-/-) cells
- other: neutralisation sensitivity ([2]; glycan changed form): no change

Substance: HIV-1 envelope glycoprotein (Env, gp160) CAP45: swainsonine
- other: neutralisation sensitivity ([2]; glycan changed form): no change

Substance: HIV-1 envelope glycoprotein (Env, gp160) CAP45: kifunensine
- other: neutralisation sensitivity ([2]; glycan changed form): no change
